Assay results from US20230212549A1 (3B PHARMACEUTICALS, published 2023).
“And” between values parts separate entries of the source, which are not always exact repeats. Identical values can stand only once. Numbered stars: 1 amine (or outer) side, 2 acyl side, 3 side chain; on linkers, the order of the positions; unused ones are H or OH. Bridge positions count the residues as written; N and C are the ends. Square brackets hold non-standard residues; d marks the D form. * marks the point of attachment. tMeBn(DOTA-PP) = 1,3,5-trimethylbenzylidene, two thioethers to Cys, third CH2 bound to one N of piperazine whose other N bears DOTA, O=C(O)CN1CCN(CC(=O)O)CCN(CC(=O)N2CCN(Cc3cc(C[*:1])cc(C[*:2])c3)CC2)CCN(CC(=O)O)CC1; Ttds = 1,13-diamino-4,7,10-trioxatridecan-succinamic acid, O=C(CCC(=O)[*:2])NCCCOCCOCCOCCCN[*:1]; DOTA = O=C(O)CN1CCN(CC(=O)O)CCN(CC(=O)*)CCN(CC(=O)O)CC1; mXylylene = c1cc(C[*:1])cc(C[*:2])c1; Hyp = O=C(O)[C@@H]1C[C@@H](O)CN1; Nle = CCCC[C@H](N)C(=O)O; Nphe = O=C(O)CNCc1ccccc1; Hexanoyl = CCCCCC(=O)*; Sar = CNCC(=O)O

B1: Hex-[Cys(3MeBn)-Pro-Hyp-Thr-Glu-Phe-Cys]-NH2 (peptide)
peptide: Hexanoyl-CP[Hyp]TEFC-NH2
modifications: linker 1-7 via mXylylene
SMILES: CCCCCC(=O)N[C@H]1CSCc2cccc(c2)CSC[C@@H](C(N)=O)NC(=O)[C@H](Cc2ccccc2)NC(=O)[C@H](CCC(=O)O)NC(=O)[C@H]([C@@H](C)O)NC(=O)[C@@H]2C[C@@H](O)CN2C(=O)[C@@H]2CCCN2C1=O
notes: also called 3BP-3366
B2: Hex-[Cys(3MeBn)-Pro-Pro-Thr-Gln-Trp-Cys]-NH2 (peptide)
peptide: Hexanoyl-CPPTQWC-NH2
modifications: linker 1-7 via mXylylene
SMILES: CCCCCC(=O)N[C@H]1CSCc2cccc(c2)CSC[C@@H](C(N)=O)NC(=O)[C@H](Cc2c[nH]c3ccccc23)NC(=O)[C@H](CCC(N)=O)NC(=O)[C@H]([C@@H](C)O)NC(=O)[C@@H]2CCCN2C(=O)[C@@H]2CCCN2C1=O
notes: also called 3BP-3408
B3: Hex-[Cys(3MeBn)-Pro-Pro-Thr-Glu-Phe-Cys]-OH (peptide)
peptide: Hexanoyl-CPPTEFC-OH
modifications: linker 1-7 via mXylylene
SMILES: CCCCCC(=O)N[C@H]1CSCc2cccc(c2)CSC[C@@H](C(=O)O)NC(=O)[C@H](Cc2ccccc2)NC(=O)[C@H](CCC(=O)O)NC(=O)[C@H]([C@@H](C)O)NC(=O)[C@@H]2CCCN2C(=O)[C@@H]2CCCN2C1=O
notes: also called 3BP-3370
B4: Hex-[Cys(tMeBn(GaDOTA-PP))-Pro-Pro-Thr-Gln-Phe-Cys]-Asp-NH2 (peptide)
peptide: Hexanoyl-CPPTQFCD-NH2
modifications: linker 1-7 via tMeBn(GaDOTA-PP); also: Ga complex (GaDOTA)
notes: also called 3BP-3592
B5: DOTA-Ttds-Nle-[Cys(3MeBn)-Pro-Pro-Thr-Glu-Phe-Cys]-Asp-NH2 (peptide)
peptide: {DOTA}-[Ttds][Nle]CPPTEFCD-NH2
modifications: linker 3-9 via mXylylene
SMILES: CCCC[C@H](NC(=O)CCC(=O)NCCCOCCOCCOCCCNC(=O)CN1CCN(CC(=O)O)CCN(CC(=O)O)CCN(CC(=O)O)CC1)C(=O)N[C@H]1CSCc2cccc(c2)CSC[C@@H](C(=O)N[C@@H](CC(=O)O)C(N)=O)NC(=O)[C@H](Cc2ccccc2)NC(=O)[C@H](CCC(=O)O)NC(=O)[C@H]([C@@H](C)O)NC(=O)[C@@H]2CCCN2C(=O)[C@@H]2CCCN2C1=O
notes: also called 3BP-3320
B6: Hex-[Cys(tMeBn(DOTA-AET))-Pro-Pro-Thr-Gln-Phe-Cys]-asp-NH2 (peptide)
peptide: CPPTQFCD
modifications: N-term Hex; Cys1/Cys7 thioether-cyclised via tMeBn(DOTA-AET); D-Asp at 8; C-term amide
notes: also called 3BP-3681
B7: Hex-[Cys(3MeBn)-Nphe-Pro-Thr-Gln-Phe-Cys]-NH2 (peptide)
peptide: Hexanoyl-C[Nphe]PTQFC-NH2
modifications: linker 1-7 via mXylylene
SMILES: CCCCCC(=O)N[C@H]1CSCc2cccc(c2)CSC[C@@H](C(N)=O)NC(=O)[C@H](Cc2ccccc2)NC(=O)[C@H](CCC(N)=O)NC(=O)[C@H]([C@@H](C)O)NC(=O)[C@@H]2CCCN2C(=O)CN(Cc2ccccc2)C1=O
B8: DOTA-Ttds-Nle-[Cys(3MeBn)-Pro-Pro-Thr-Glu-Phe-Cys]-NH2 (peptide)
peptide: {DOTA}-[Ttds][Nle]CPPTEFC-NH2
modifications: linker 3-9 via mXylylene
SMILES: CCCC[C@H](NC(=O)CCC(=O)NCCCOCCOCCOCCCNC(=O)CN1CCN(CC(=O)O)CCN(CC(=O)O)CCN(CC(=O)O)CC1)C(=O)N[C@H]1CSCc2cccc(c2)CSC[C@@H](C(N)=O)NC(=O)[C@H](Cc2ccccc2)NC(=O)[C@H](CCC(=O)O)NC(=O)[C@H]([C@@H](C)O)NC(=O)[C@@H]2CCCN2C(=O)[C@@H]2CCCN2C1=O
notes: also called 3BP-3319
B9: Hex-[Cys(tMeBn(LuDOTA-PP))-Pro-Pro-Thr-Gln-Phe-Cys]-Asp-NH2 (peptide)
peptide: Hexanoyl-CPPTQFCD-NH2
modifications: linker 1-7 via tMeBn(LuDOTA-PP); also: Lu complex (LuDOTA)
notes: also called 3BP-3591
B10: Ac-Met-[Cys(3MeBn)-Pro-Pro-Thr-Glu-Phe-Cys]-Ala-His-Phe-Arg-Asp-NH2 (peptide)
peptide: Ac-MCPPTEFCAHFRD-NH2
modifications: linker 2-8 via mXylylene
SMILES: CSCC[C@H](NC(C)=O)C(=O)N[C@H]1CSCc2cccc(c2)CSC[C@@H](C(=O)N[C@@H](C)C(=O)N[C@@H](Cc2c[nH]cn2)C(=O)N[C@@H](Cc2ccccc2)C(=O)N[C@@H](CCCNC(=N)N)C(=O)N[C@@H](CC(=O)O)C(N)=O)NC(=O)[C@H](Cc2ccccc2)NC(=O)[C@H](CCC(=O)O)NC(=O)[C@H]([C@@H](C)O)NC(=O)[C@@H]2CCCN2C(=O)[C@@H]2CCCN2C1=O
notes: also called 3BP-3194
B11: Hex-[Cys(tMeBn(DOTA-AET))-Nmg-Pro-Thr-Gln-Phe-Cys]-OH (peptide)
peptide: Hexanoyl-C[Sar]PTQFC-OH
modifications: linker 1-7 via tMeBn(DOTA-AET)
notes: also called 3BP-3678
B12: Hex-[Cys(tMeBn(DOTA-PP))-Pro-Thr-Pro-Phe-Gln-Cys]-Asp-NH2 (peptide)
peptide: Hexanoyl-CPTPFQCD-NH2
modifications: linker 1-7 via tMeBn(DOTA-PP)
SMILES: CCCCCC(=O)N[C@H]1CSCc2cc(cc(CN3CCN(C(=O)CN4CCN(CC(=O)O)CCN(CC(=O)O)CCN(CC(=O)O)CC4)CC3)c2)CSC[C@@H](C(=O)N[C@@H](CC(=O)O)C(N)=O)NC(=O)[C@H](CCC(N)=O)NC(=O)[C@H](Cc2ccccc2)NC(=O)[C@@H]2CCCN2C(=O)[C@H]([C@@H](C)O)NC(=O)[C@@H]2CCCN2C1=O

Legend:
[1] = biological target: T1, fibroblast activation protein (FAP) on FAP-expressing human WI-38 fibroblasts (human, UniProt Q12884 1-760); test: competitive FACS, WI-38 cells, vs Cy5 tracer m3; B = pIC50 7.1-8.0
T1 construct: also called human FAP

[2] = biological target: Recombinant human FAP (R&D systems, #3715-SE) (human, UniProt Q12884 26-760); test: cell-based or functional assay
[3] = biological target: T2, Recombinant human FAP (R&D systems, #3715-SE) (human, UniProt Q12884 26-760); test: SPR (Biacore T200), FAP captured on anti-FAP antibody, single cycle kinetics
T2 construct: bought; in SPR captured on immobilized anti-FAP antibody MAB3715; also called rhFAP; human recombinant FAP

[4] = biological target: T2, Recombinant human FAP (R&D systems, …); test: cell-based or functional assay; remark: listed apart in the source

Binder	pIC50 Category (FACS) [1]	pIC50 Category (Activity) [2]	pKD Category [3]	pIC50 Category (Activity) [4]
B1	7.1 pIC50 and 8 pIC50	7.1 pIC50 and 8 pIC50	–	–
B2	7.1 pIC50 and 8 pIC50	7.1 pIC50 and 8 pIC50	–	–
B3	7.1 pIC50 and 8 pIC50	7.1 pIC50 and 8 pIC50	–	–
B4	–	–	> 8 pKD	–
B5	7.1 pIC50 and 8 pIC50	> 8 pIC50	–	–
B6	–	–	> 8 pKD	–
B7	–	–	–	≤ 6 pIC50
B8	7.1 pIC50 and 8 pIC50	7.1 pIC50 and 8 pIC50	–	–
B9	–	–	> 8 pKD	–
B10	7.1 pIC50 and 8 pIC50	7.1 pIC50 and 8 pIC50	–	–
B11	–	–	> 8 pKD	–
B12	–	–	–	≤ 6 pIC50
